Test system: 3-ketomyristoyl-ACP (enzymatically prepared from ShACP)

Sequence of ShMKS2 (methylketone synthase 2 from Solanum habrochaites f glabratum), recombinant, without the transit peptide, His-tagged (chain, as listed by the source): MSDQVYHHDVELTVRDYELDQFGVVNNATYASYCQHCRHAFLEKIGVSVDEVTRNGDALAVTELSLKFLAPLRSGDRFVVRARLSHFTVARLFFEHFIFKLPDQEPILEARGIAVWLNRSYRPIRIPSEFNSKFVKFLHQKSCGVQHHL

ShMKS2 (methylketone synthase 2 from Solanum habrochaites f glabratum), recombinant, without the transit peptide, His-tagged
amount of 2-tridecanone formed (in vitro thioesterase activity assay, acid and heat treatment, GC-MS): approximately 3-fold higher than levels found in buffer-incubated substrate solution treated with acid and heat
